Experimental data reported in patent US12226490B2, “Anti-ROR1 antibody conjugates, compositions comprising anti ROR1 antibody conjugates, and methods of making and using anti-ROR1 antibody conjugates preliminary class” (Sutro Biopharma, Inc., priority 2022, dated 2025).

Legend:
human ROR1-Fz = molecular target: T1, human ROR1-Fz (Homo sapiens, UniProt Q01973); assay: Biacore off-rate and kinetic analysis, ROR1 frizzled domain; format: binding; settings: for kd1 / ka1: Sample ROR1 Fz, SPR; for ka1: 1-1 Langmuir; for Biacore human ROR1-Fz ka / Biacore human ROR1-Fz kd: Table 11 (SP34 light chain)
T1 construct: Frizzled (Fz, residues 165-305); HIS6 (C); purchased Acro Biosystems; host or cells: HEK293
Method: Anti-Fc polyclonal antibodies were immobilized onto a CM5 chip (GE Life Sciences) using amine coupling chemistry (from Amine Coupling Kit, GE Life Sciences). The immobilization steps were carried out at a flow rate of 25 μL/min in 1×HBS-EP+ buffer (GE Life Sciences; 10× Stock diluted before use). The sensor surfaces were activated for 7 min with a mixture of NHS (0.05 M) and EDC (0.2 M). The Anti-Fc antibodies were injected over all 4 flow cells at a concentration of 25 ug/ml in 10 mM sodium acetate, pH 4.5, for 7 min. Ethanolamine (1 M, pH 8.5) was injected for 7 min to block any remaining activated groups. An average of 12,000 response units (RU) of capture antibody was immobilized on each flow cell.
Off-rate and kinetic binding experiments were performed at 25° C. using 1×HBS-EP+ buffer. Test and control antibodies were injected over the anti-Fc surface at concentrations of 5-10 μg/mL for 12 seconds at a flow rate of 10 μL/min on flow cells 2, 3 and 4, followed by a buffer wash for 30 seconds at the same flow rate. Kinetic characterization of antibody samples was carried out with a range of antigen concentrations from 1-100 nM and 1 injection of 0 nM antigen (for example, 100, 50, 25, 6.25, 1.56 and 0 nM). After capturing ligand (antibody) on the anti-Fc surface, the analyte (hROR1, Fz or Kr domains, Acro Biosystems, Delaware) was bound for 180 seconds, followed by a 600 second dissociation phase at a flow rate of 50 μL/min. Between each ligand capture and analyte binding cycle, regeneration was carried out using 2 injections of 10 mM Glycine pH 2.0 for 30 seconds at 30 μL/min, followed by a 30 second buffer wash step.
The data was fit with the Biacore T200 Evaluation software, using a 1-1 Langmuir binding model. KD (affinity, nM) was determined as a ratio of the kinetic rate constants calculated from the fits of the association and dissociation phases.
For anti-CD3-LC-containing IgGs that had detectable ROR1-binding in ELISA (1944-A07 and 1987-C05 variants), those antibodies were further tested for binding by surface plasmon resonance (SPR). Binding kinetics were assessed to the ROR1-frizzled domain (hROR1-Fz) or the ROR1-extracellular domain (hROR1) for 1944-A07 and 1987-C05 variants, respectively. Briefly, anti-ROR1 antibodies were captured via anti-human Fc polyclonal antibodies immobilized to a CM5 chip, and ROR1 recombinant proteins were flowed across the surface to assess binding kinetics. hROR1 or hROR1-Fz domain (Acro Biosystems, Delaware) binding was tested at 100, 50, 25, 6.25, 1.5625 nM. The data was fit with the Biacore™ T200 Evaluation software, using a 1-1 Langmuir binding model. KD (affinity, nM) was determined as a ratio of the kinetic rate constants calculated from the fits of the association and dissociation phases.

[1] = Differential scanning fluorimetry (protein thermal shift; TM1 Fc, TM2 Fab); format: physicochemical; settings: melting temperature of the Fab domain; Table 11
Method: A protein thermal shift assay was carried out by mixing the protein to be assayed with an environmentally sensitive dye (SYPRO Orange, Life Technologies Cat #S-6650) in a phosphate buffered solution (PBS), and monitoring the fluorescence of the mixture in real time as it underwent controlled thermal denaturation. Protein solutions between 0.2-2 mg/mL were mixed at a 1-1 volumetric ratio with a 1-500 PBS-diluted solution of SYPRO Orange (SYPRO Orange stock dye is 5000× in DMSO). 10 μL aliquots of the protein-dye mixture were dispensed in quadruplicate in a 384-well microplate (Bio-Rad Cat #MSP-3852), and the plate was sealed with an optically clear sealing film (Bio-Rad Cat #MSB-1001) and placed in a 384-well plate real-time thermocycler (Bio-Rad CFX384 Real Time System). The protein-dye mixture was heated from 25° C. to 95° C., at increments of 0.1° C. per cycle (˜1.5° C. per minute), allowing 3 seconds of equilibration at each temperature before taking a fluorescence measurement. At the end of the experiment, the transition melting temperatures (TM1 and TM2) were determined using the Bio-Rad CFX manager software. TM1 represents the melting temperature of the Fc domain. TM2 represents the melting temperature of the Fab domain.
For the thermal stability of an antibody, the first melting peak (Tm1) coincides with the unfolding of the CH2 domain (FC stability), while the second melting peak (Tm2) occurs upon unfolding of the Fab domain.

T1 sequence (Q01973 165-305): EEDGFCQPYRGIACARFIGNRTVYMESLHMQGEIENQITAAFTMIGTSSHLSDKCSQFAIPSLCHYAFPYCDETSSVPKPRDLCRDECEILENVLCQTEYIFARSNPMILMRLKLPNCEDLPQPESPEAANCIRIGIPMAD

| kd1 (human ROR1-Fz) | ka1 (human ROR1-Fz) | Biacore human ROR1-Fz ka (human ROR1-Fz) | Biacore human ROR1-Fz kd (human ROR1-Fz) | Molecule | TM2 [1] |
| --- | --- | --- | --- | --- | --- |
|  |  | 186000 M⁻¹ s⁻¹ | 0.00064 s⁻¹ | SRP2196-A07 (antibody, V domains shown) VH: EVQLVESGGGLVQPGGSLRLSCAASGFNITGYYIHWVRQAPGKGLEWVGQISPNSGSTYYADSVKGRFTISADTSKNTAYLQMSSLRAEDTAVYYCARDSRRYVRGWDYWGQGTLVTVSS VL: QAVVTQESALTTSPGETVTLTCRSSTGAVTTSNYANWVQEKPDHLFTGLIGGTNKRAPGVPARFSGSLIGDKAALTITGAQTEDEAIYFCALWYSNLWVFGGGTKLTVL | 74 °C |
|  |  | 175000 M⁻¹ s⁻¹ | 0.000682 s⁻¹ | SRP2196-A05 (antibody, V domains shown) VH: EVQLVESGGGLVQPGGSLRLSCAASGFNITNYYIHWVRQAPGKGLEWVGYISPNSGATYQADSVKGRFTISADTSKNTAYLQMNSLRAEDTAVYYCARDSRRYVRSWDYWGQGTLVTVSS VL: QAVVTQESALTTSPGETVTLTCRSSTGAVTTSNYANWVQEKPDHLFTGLIGGTNKRAPGVPARFSGSLIGDKAALTITGAQTEDEAIYFCALWYSNLWVFGGGTKLTVL | 71 °C |
|  |  | 180000 M⁻¹ s⁻¹ | 0.00069 s⁻¹ | SRP2196-A06 (antibody, V domains shown) VH: EVQLVESGGGLVQPGGSLRLSCAASGFNITGYYIHWVRQAPGKGLEWVGQISPNSGSTHQADSVKGRFTISADTSKNTAYLQMNSLRAGDTAVYYCARDSRRYVRGWDYWGQGTLVTVSS VL: QAVVTQESALTTSPGETVTLTCRSSTGAVTTSNYANWVQEKPDHLFTGLIGGTNKRAPGVPARFSGSLIGDKAALTITGAQTEDEAIYFCALWYSNLWVFGGGTKLTVL | 70 °C |
|  |  | 169000 M⁻¹ s⁻¹ | 0.000275 s⁻¹ | SRP2196-A03 (antibody, V domains shown) VH: EVQLVESGGGLVQPGGSLRLSCAASGFNITQYHIHWVRQAPGKGLEWVGYISPNSGSTHEADSVKGRFTISADTSKNTAYLQMNSLRAEDTAVYYCARDSRRYVRGWDYWGQGTLVTVSS VL: QAVVTQESALTTSPGETVTLTCRSSTGAVTTSNYANWVQEKPDHLFTGLIGGTNKRAPGVPARFSGSLIGDKAALTITGAQTEDEAIYFCALWYSNLWVFGGGTKLTVL | 70 °C |
|  |  | 139000 M⁻¹ s⁻¹ | 0.000343 s⁻¹ | SRP2196-A04 (antibody, V domains shown) VH: EVQLVESGGGLVQPGGSLRLSCAASGFNISPYYIHWVRQAPGKGLEWVGQIYPISGHTYQADSVKGRFTISADTSKNTAYLQMNSLRAEDTAVYYCARESRRYVGPFGYWGQGTLVTVSS VL: QAVVTQESALTTSPGETVTLTCRSSTGAVTTSNYANWVQEKPDHLFTGLIGGTNKRAPGVPARFSGSLIGDKAALTITGAQTEDEAIYFCALWYSNLWVFGGGTKLTVL |  |
|  |  | 183000 M⁻¹ s⁻¹ | 0.00078 s⁻¹ | SRP2196-A08 (antibody, V domains shown) VH: EVQLVESGGGLVQPGGSLRLSCAASGFNITGYYIHWVRQAPGKGLEWVGYISPNSGSTYKADSVKGRFTISADTSRNTAYLQMNSLRAEDTAVYYCARDSRRYVRSWDYWGQGTLVTVSS VL: QAVVTQESALTTSPGETVTLTCRSSTGAVTTSNYANWVQEKPDHLFTGLIGGTNKRAPGVPARFSGSLIGDKAALTITGAQTEDEAIYFCALWYSNLWVFGGGTKLTVL | 69 °C |

Continued, molecule first:

| Molecule | kd1 (human ROR1-Fz) | ka1 (human ROR1-Fz) | Biacore human ROR1-Fz ka (human ROR1-Fz) | Biacore human ROR1-Fz kd (human ROR1-Fz) | TM2 [1] |
| --- | --- | --- | --- | --- | --- |
| 1944-A07 HC w/hUCHT1 LC3: HC of lead antibody 1944-A07 co-expressed with LC "derived from anti-CD3 antibodies": hUCHT1-LC3 (antibody, V domains shown) VH: EVQLVESGGGLVQPGGSLRLSCAASGFNITGYYIHWVRQAPGKGLEWVGYISPNSGSTYYADSVKGRFTISADTSKNTAYLQMNSLRAEDTAVYYCARDSRRYVRPFDYWGQGTLVTVSS VL: DIQMTQSPSTLSASVGDRVTITCRASQDIRNYLNWYQQKPGKAPKLLIYYTSRLHSGVPSRFSGSGSGTEYTLTISSLQPDDFATYYCQQGNTLPWTFGGGTKVEIK | 0.119 s⁻¹ | 1.85e+06 M⁻¹ s⁻¹ |  |  |  |
| SRP2196-A01 (antibody, V domains shown) VH: EVQLVESGGGLVQPGGSLRLSCAASGFNITGYYIHWVRQAPGKGLEWVGQISPNSGYTYYADSVKGRFTISADTSKNTAYLQMNSLRAEDTAVYYCARDSRRYVRGWDYWGQGTLVTVSS VL: QAVVTQESALTTSPGETVTLTCRSSTGAVTTSNYANWVQEKPDHLFTGLIGGTNKRAPGVPARFSGSLIGDKAALTITGAQTEDEAIYFCALWYSNLWVFGGGTKLTVL |  |  |  |  | 74 °C |
| 1944-A07 HC w/hSP34 LC3: HC of lead antibody 1944-A07 co-expressed with LC "derived from anti-CD3 antibodies": hSP34-LC3 (antibody, V domains shown) VH: EVQLVESGGGLVQPGGSLRLSCAASGFNITGYYIHWVRQAPGKGLEWVGYISPNSGSTYYADSVKGRFTISADTSKNTAYLQMNSLRAEDTAVYYCARDSRRYVRPFDYWGQGTLVTVSS VL: QTVVTQEPSLTVSPGGTVTLTCGSSTGAVTSGYYPNWFQQKPGQAPRGLIGGTKFLAPGTPARFSGSLLGGKAALTLSGVQPEDEAEYYCALWYSNRWVFGGGTQLTVTG | 0.00228 s⁻¹ | 360000 M⁻¹ s⁻¹ |  |  |  |
| SRP2196-B05 (antibody, V domains shown) VH: EVQLVESGGGLVQPGGSLRLSCAASGFNITGYYIHWVRQAPGKGLEWVGQISPNSGATYHADSVKGRFTISADTSKNTAYLQMNSLRAEDTAVYYCARDSRRYVRGWDYWGQGTLVTVSS VL: QAVVTQESALTTSPGETVTLTCRSSTGAVTTSNYANWVQEKPDHLFTGLIGGTNKRAPGVPARFSGSLIGDKAALTITGAQTEDEAIYFCALWYSNLWVFGGGTKLTVL |  |  |  |  | 73 °C |
| SRP1944-A07 w SP34 LC3 (antibody, V domains shown) VH: EVQLVESGGGLVQPGGSLRLSCAASGFNITGYYIHWVRQAPGKGLEWVGYISPNSGSTYYADSVKGRFTISADTSKNTAYLQMNSLRAEDTAVYYCARDSRRYVRPFDYWGQGTLVTVSS VL: QTVVTQEPSLTVSPGGTVTLTCGSSTGAVTSGYYPNWFQQKPGQAPRGLIGGTKFLAPGTPARFSGSLLGGKAALTLSGVQPEDEAEYYCALWYSNRWVFGGGTQLTVTG |  |  | 597000 M⁻¹ s⁻¹ | 0.0085 s⁻¹ |  |
| SRP2196-A02 (antibody, V domains shown) VH: EVQLVESGGGLVQPGGSLRLSCAASGFNITGYYIHWVRQAPGKGLEWVGQISPNSGATHDADSVKGRFTISADTSKNTAYLQMNSLRAEDTAVYYCARDSRRYVRGWDYWGQGTLVTVSS VL: QAVVTQESALTTSPGETVTLTCRSSTGAVTTSNYANWVQEKPDHLFTGLIGGTNKRAPGVPARFSGSLIGDKAALTITGAQTEDEAIYFCALWYSNLWVFGGGTKLTVL |  |  |  |  | 71 °C |
